The values that follow are results of earlier work, collected in paper PMC8810291.

This data set has as its target FNIP1 (Homo sapiens) (UniProt Q8TF40).

Chain of FEM1B (Q9UK73 whole entry): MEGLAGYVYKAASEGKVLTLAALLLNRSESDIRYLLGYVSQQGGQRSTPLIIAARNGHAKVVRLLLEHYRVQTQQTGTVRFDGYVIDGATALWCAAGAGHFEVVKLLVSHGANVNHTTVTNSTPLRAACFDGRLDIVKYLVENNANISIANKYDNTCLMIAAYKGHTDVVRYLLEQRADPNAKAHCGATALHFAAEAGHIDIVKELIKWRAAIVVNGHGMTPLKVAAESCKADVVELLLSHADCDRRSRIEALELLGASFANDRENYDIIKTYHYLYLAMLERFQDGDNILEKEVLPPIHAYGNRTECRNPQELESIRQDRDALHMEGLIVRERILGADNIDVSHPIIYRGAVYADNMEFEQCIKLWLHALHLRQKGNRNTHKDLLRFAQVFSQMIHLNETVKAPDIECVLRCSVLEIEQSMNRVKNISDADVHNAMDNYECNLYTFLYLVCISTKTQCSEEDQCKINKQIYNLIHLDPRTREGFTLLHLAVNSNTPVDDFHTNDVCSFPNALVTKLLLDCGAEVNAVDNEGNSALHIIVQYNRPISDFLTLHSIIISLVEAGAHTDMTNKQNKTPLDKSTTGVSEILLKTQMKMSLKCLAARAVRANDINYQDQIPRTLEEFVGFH
Chain of FNIP1 (Homo sapiens) (Q8TF40 whole entry): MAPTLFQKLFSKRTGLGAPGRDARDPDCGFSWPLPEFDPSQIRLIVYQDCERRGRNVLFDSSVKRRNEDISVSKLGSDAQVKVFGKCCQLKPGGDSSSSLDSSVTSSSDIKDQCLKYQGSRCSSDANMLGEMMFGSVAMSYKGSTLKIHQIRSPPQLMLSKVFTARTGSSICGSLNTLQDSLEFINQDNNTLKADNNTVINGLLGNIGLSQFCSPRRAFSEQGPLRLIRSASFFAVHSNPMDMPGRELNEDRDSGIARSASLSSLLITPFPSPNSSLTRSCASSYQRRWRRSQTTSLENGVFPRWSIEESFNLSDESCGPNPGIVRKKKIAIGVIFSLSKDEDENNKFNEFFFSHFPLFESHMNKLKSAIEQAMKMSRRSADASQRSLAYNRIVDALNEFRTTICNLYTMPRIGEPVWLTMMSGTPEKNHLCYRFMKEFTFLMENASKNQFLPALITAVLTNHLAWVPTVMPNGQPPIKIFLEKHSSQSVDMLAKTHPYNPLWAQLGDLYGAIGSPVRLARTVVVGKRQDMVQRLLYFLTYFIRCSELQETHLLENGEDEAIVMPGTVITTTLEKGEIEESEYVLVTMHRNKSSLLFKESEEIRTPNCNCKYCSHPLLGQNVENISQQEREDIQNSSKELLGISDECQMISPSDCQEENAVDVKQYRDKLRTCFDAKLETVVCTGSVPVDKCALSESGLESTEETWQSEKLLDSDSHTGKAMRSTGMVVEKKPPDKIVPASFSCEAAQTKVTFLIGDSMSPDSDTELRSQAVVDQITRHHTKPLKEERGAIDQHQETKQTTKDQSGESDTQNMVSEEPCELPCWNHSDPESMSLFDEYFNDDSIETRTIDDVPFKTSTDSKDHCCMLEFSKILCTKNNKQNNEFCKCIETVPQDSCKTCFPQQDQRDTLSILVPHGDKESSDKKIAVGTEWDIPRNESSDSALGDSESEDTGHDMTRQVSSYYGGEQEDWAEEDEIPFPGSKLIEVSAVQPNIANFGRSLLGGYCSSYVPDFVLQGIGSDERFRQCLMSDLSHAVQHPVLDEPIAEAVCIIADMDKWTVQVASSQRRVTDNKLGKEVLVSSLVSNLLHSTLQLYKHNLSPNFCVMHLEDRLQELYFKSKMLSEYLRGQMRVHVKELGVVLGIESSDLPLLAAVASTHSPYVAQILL

As a reminder, the Kd is the free concentration of one partner at which half of the binding sites on the other are occupied at equilibrium, for simple one-to-one binding. For the substance FEM1B (from UniProt Q9UK73), the Kd was 20 nM.
